Our source for the H2-Dd expression values is patent publication US20250057930A1, “ANAPLASTIC LYMPHOMA KINASE (ALK) CANCER VACCINES AND METHODS OF USE THEREOF” (The Children's Medical Center Corporation, priority 2022, published 2025).

For the assay, the system named is H2-Dd expression. The assay is described as follows: H2-Dd surface expression on MHC-I^low lung tumor escaper cell lines (flow cytometry). Format: cell-based, mouse. The following applies: tumor cells stimulated in vitro with IFN-γ. As to the method: To uncover the mechanisms that would explain this resistance to treatment, ex vivo escaped tumors were isolated from each treatment group. […] To understand whether the observed H2-Dd downregulation was sufficient to impair tumor rejection, tumor cells with high H2-Dd isolated from untreated mice or tumor cells with low H2-Dd isolated from ALK vaccinated mice and treated with ICI were injected. Treatment with ICI induced rejection of tumors with high H2-Dd expression (FIGS. 6D-6E), consistent with previous experiments (FIG. 3E), but not of escaped tumors with low H2-Dd expression (FIGS. 6F-6G). Finally, it was asked whether H2-Dd expression could be restored by Stimulator of IFN genes (STING) signaling that can increase MHC-I expression in other models of lung cancer.
Allophycocyanin (APC)-conjugates H-2D^d-[…] (SEQ ID NO: 22) Dextramer reagents were obtained from Immudex (Immudex, Denmark). […] After washing step, cells were ready to be acquired. When referred, also PD-1 (clone RMP1-30; BV421-PD-1, BD Pharmingen™, USA) expression was evaluated together with dextramer staining, being added together with FITC-CD8. H2-Dd MHC-I expression was measured on relapsed tumors after treatment. […] All cells were acquired in a BD Celesta flow cytometer (BD Bioscience, USA) and analyzed by using the FlowJo software (FlowJo LCC, USA). […]
In general terms: Flow cytometry measures light scatter and fluorescence of single cells or particles in a stream.

B1: IFN-γ: Recombinant murine IFN-γ (R&D Systems) (protein, UniProt P01580 23-155, looked up)
Interferon gamma: HGTVIESLESLNNYFNSSGIDVEEKSLFLDIWRNWQKDGDMKILQSQIISFYLRLFEVLKDNQAISNNISVIESHLITTFFSNSKAKKDAFMSIAKFEVNNPQVQRQAFNELIRVVHQLLPESSLRKRKRSRC
B1: the H2-Dd expression entry is given as “H2-Dd expression was restored”.
